From the nanobody polyreactivity screen of Harvey et al. (2022)

Test: yeast display, Sf9 membrane polyspecificity reagent, FACS + sequencing; frameworks hold sequencing errors
Method in brief: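 Nanobodies came from a synthetic yeast display library in Saccharomyces cerevisiae BJ5465, induced with galactose for 36–48 hours and stained for 1 hour at 4 °C with 10% biotinylated, detergent-solubilized Sf9 membrane reagent. Cells were enriched on streptavidin microbeads and then FACS-sorted, with low and high (top ~1%) gates set on anti-HA fluorescence for expression and streptavidin fluorescence for reagent binding. Each polyreactivity label reflects the gate a clone came from. Genes were amplified by colony PCR, sequenced by MiSeq 2 × 250 and filtered by CDR length.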

Sequence	polyreactivity (PSR sort gate)
QVQLVESGGGLVQAGGSLRLSCDASGRIFLDYVMGWYRQAPGKERELVAAISWSGDRTDYADSVKGRFTISRDNAKNTVYLQMNSLKPEDTAVYYCATTWYFAYSDDYKFDYWGQGTQVTVSS	low polyreactivity
QVQLVESGGGLVQAGGSLRLSCDASGRIFLHYAMRLYRQAPGTERELVAAISRSGGSTYYADSVKGRFTISRDNAKNTVYLQMNSLKPEDTAVYYCAADGPGDYLTLEWYWFTYYYWGQGTQVTVSS	high polyreactivity
QVQLVESGGGLVQAGGSLRLSCDASGRIFLTNAMAWYRQAPGKERELVAAITSGVSTYYADSVKGRFTISRDNAKNTVYLQMNSLKPEDTAVYYCNADTDRYWPYEYDYWGQGTQVTVSS	low polyreactivity
QVQLVESGGGLVQAGGSLRLSCDASGRIFYGYAMGWYRQAPGKERELVAAITYIGGTYYADSVKGRFTISRDNAKNTVYLQMNSMKPEDTAVYYCNALYRYLYRSGDFWGQGSQVTVSS	low polyreactivity
QVQLVESGGGLVQAGGSLRLSCDASGRIFYNYAMGWYRQAPGTERELVAAISGSGGSTYYADSVKGRFTISRDNAKNTVYLQMNSLKPEDTAVYDCSTFGPQYYSRNFDYWGQGTLVTVSS	low polyreactivity
QVQLVESGGGLVQAGGSLRLSCDASGRIFYSYDIGWYRQAHGKARELVATISSAGSTYYADSVKGRFTISRDNAKNTVYLQMNSLKPEDTAVYYSARRSGWWTRMDSWGQGTQVTVSS	high polyreactivity
QVQLVESGGGLVQAGGSLRLSCDASGRIFYYYGMGWYRQAPGKERELVAAISNGGRTYYADSVKGRFTISRDNAKNTVYLQMNSLKPEDTAVYYCAALTRGRGGYDYWGQGTQVTVSS	high polyreactivity
QVQLVESGGGLVQAGGSLRLSCDASGRILKYNAMGWYRQAPGKERELVAAISGSGGRTYYADSVKGRFTISRDNAKNTVYLQMNSLKPEDTAVYYCAASNASPGGFNYWGQGTQVTVSS	high polyreactivity
QVQLVESGGGLVQAGGSLRLSCDASGRIYEVYAMGWYRRAPGKERELVAAISADGTITSYADSVKGRFTISRDNAKNNVYLQMNSLKPEDTAVYYCNADPRFRGDYWGQGTQVTVSS	high polyreactivity
QVQLVESGGGLVQAGGSLRLSCDASGRPFRRNAMGWYRQAPGKERELVAAITLSGGRTYADSLKGRFTISRDNAKNTVYLQMNSLKPEDTAVYYCAASSPGFSYWYNGYEYWGEGTQVTVSS	high polyreactivity
QVQLVESGGGLVQAGGSLRLSCDASGRTLDVNARGWYRQAPGKERELVAAISYSGGITYYADSVKGRFTISRDNAKNTVYLQMNRLKPEDTAVYYCAVVGGYPSYTVDYWGKGTQVTVSS	low polyreactivity
QVQLVESGGGLVQAGGSLRLSCDASGSIFATYAMGWYRQAPGKERELVAAIRRSTGTTYYADSVKGRFTISRDNAKNTVYLQMNSLKPEDTAVYYCAALFRPRVHRYDYWGQGTLVTVSS	low polyreactivity
QVQLVESGGGLVQAGGSLRLSCDASGSIFEYYAMGWYRPAPGKERELVAAISSGGPTYYADSVKGRFTISRDNAKNTVYLQMNSLKPEDTAVYYCNADLWYPDYDYWGQGTQVTVSS	low polyreactivity
QVQLVESGGGLVQAGGSLRLSCDASGSIFGVNAMGWYRQAPGKERELVAAINNGGSTKYADSVKGRFTISRDNAKNTVYLQMNSLKPEDTAVYYCAARSWTHYFRFDYWGQGTQVTVSS	high polyreactivity
QVQLVESGGGLVQAGGSLRLSCDASGSIFPYYAMGWYRQAPGKERELVAAITSSDGITYYADSVKGRFTISRDNAKNTVYLQMNSLKPEDTAVYYCAAEVYVADWLTEFYYWGQGTQVTVSS	high polyreactivity
QVQLVESGGGLVQAGGSLRLSCDASGSIFSHYAMGWYRQAPGKERELVATITWRGGSNTNYADSVKGRFTISRDNAKNTVYLQMNSLKPEDTAVYYCAADGDGYYYWGQGTQVTVSS	low polyreactivity
QVQLVESGGGLVQAGGSLRLSCDASGSIFYFNAMGWYRQAPGKERELVASITSGGSTNYADSVKGRFTISRDNAKNTVYLQMNSLKPEDTAVYYCNARKVTYPLYQDEMEYWGQGTQVTVSS	low polyreactivity
QVQLVESGGGLVQAGGSLRLSCDASGSILSFYVMGWYIQAPGKERELVAAINLSSGRTYYADSVKGRFTISRDNAKNTVYLQMNSLKPEDTAVYYCAKQVFGYGIVNNGDYWGQGTQVTVSS	high polyreactivity
QVQLVESGGGLVQAGGSLRLSCDASGSISVVNMGWYRQAPGKERELVASNTSSGSTTYADSVKGRFTISRDKAKNTVYLQMNRLKPEDTAVYYCAADVGTDYTYQHPAGAAYDYCGQGTQVTVSS	low polyreactivity
QVQLVESGGGLVQAGGSLRLSCDASGSSFDYYARGWYRQAPGTERELVAAITSTGRTYYADSVKGRFTISRDNAKNTVYLQMNSLKPDDTAVYYCAADQPWGPLFDYWGQGTQVTVSS	low polyreactivity
QVQLVESGGGLVQAGGSLRLSCDASGSTFAAYAMGWYRQAPGKERELVAAISRSGGTTYYADSVKGRFTISRDNAKNTVYLQMNSLKPEDTAVYYCAAELSLGNYWYDYWGQGTQVTVSS	high polyreactivity
QVQLVESGGGLVQAGGSLRLSCDASGSTFVTYAMGWYRPAPGKERELVAAINTGGRTKYADSVKGRFTISRDNATNTVYLQMNSLKPEDTAVYYCAARLSTTGVAYGYWGQGTQVTVSS	high polyreactivity

Sequence	polyreactivity (PSR sort gate)
QVQLVESGGGLVQAGGSLRLSCDASGSTFYPNAMGWYRQAPWKERELVAAITTSGGSTYYADSVKGRFTISRDNAKNTVYLQMNSLKPEDTAVYYCAAEVRDRGLEPYGPIYDYWGQGTQVTVSS	high polyreactivity
QVQLVESGGGLVQAGGSLRLSCDPSGRIFNRYAMGWYRQAPGKERELVAAITSGGDTNYADSVKGRFTISRDNAKNTVYLQMNSLKQEDTAVYYCNARSRGRASGYDYWGQGTQVTVSS	high polyreactivity
QVQLVESGGGLVQAGGSLRLSCEASGFTFGPYAMGWYRQAPGKEREWVAAIDDSGGNTYYADSVKGRFTISRDNAKNTVYLQRNSLKPEDTAVSYGNAFGPDYYHVYPAEDYWGQGTQVTVSS	low polyreactivity
QVQLVESGGGLVQAGGSLRLSCEASGRIFDDNDMGWYRQAPGKERELVAAISSGDSTKYADSVKGRFTITRDNAKNTVYLQMNSLKPEDTAVYYCAAERNHGLVGSESVGRNDYWGQGTQVTVSS	low polyreactivity
QVQLVESGGGLVQAGGSLRLSCGASGFIFEGYSMGRYRQAPAKERELVAANTRGDSTNYADSVKGRFTISRDNAKNTVYLLMNSLKTEDTAVYYCAKTNLIGTDFTSPVQYYYWGQGTQVTVSS	low polyreactivity
QVQLVESGGGLVQAGGSLRLSCGASGIIFLVNAMGWYRQAPGRERELVATITSGGSTYADSVKGRFTISRDNAKNTVYLQMNSLKPEDTAVYYCAAVRRRRNSYGYWGQGTQVTVSS	high polyreactivity
QVQLVESGGGLVQAGGSLRLSCGASGRTIDYNGMGWYRQEPGKERELVSVISSSGGSTFYADSVKGRFTISRDNAKNTVYLQMNSLEPEDTAVYYCAALHVGHNYYNSGFYYWGQGTQVTVSS	low polyreactivity
QVQLVESGGGLVQAGGSLRLSCGASGSIFPHYAMGWYRQAPGKEREFVSTISGSTGRTYYADSVKGRFTISRDNAKNTVYLQMNSLKPEDTAVYYCATSVGYYLPPIKYDYWGQGTQVTVSS	low polyreactivity
QVQLVESGGGLVQAGGSLRLSCGASGSIFYGYAMGWYRQAPGKERELVAAITLSGRRTYYADSVKGRFTISRDNAKNTVDSQMNTLKPEDTEVYYCAKHYPYPTEMNYWGQGTQVTVTS	high polyreactivity
QVQLVESGGGLVQAGGSLRLSCGASGSISKINAMGWYRQARGKERELVAAINTGDSTYYADSVKGRFTISRDNAKNTVYLQRNSLKPEDTAVYYCAAEGSPTGYDYWGLGTQVTVSS	low polyreactivity
QVQLVESGGGLVQAGGSLRLSCGASGSTSVRYAMGWYRQAPGKERELVAAISSSGGSTYYAVSVKGRFTISRDTAKNTVYLQMNSLKPEDTAVYYCNAVPYTTFDWGQGTQVTVSS	low polyreactivity
QVQLVESGGGLVQAGGSLRLSCGAYGRIFLFYDMGWYRQEPGKVRELVATISFRGGSTYYADSVKGRFTISRDNAKNTVYLQMNRLKPEDTAVYYCAKQNKRGYSTSAYYSWGQGTQVTVSS	low polyreactivity
QVQLVESGGGLVQAGGSLRLSCGAYGSIFVSHAMAWSRQAPGKASELVAAISQSGGSTYYADSVKGRFTISRDNAKNTVFLQMSSLKPEDTAVYYCATPSRSGFRIYDYWGQGTQVTVSS	low polyreactivity
QVQLVESGGGLVQAGGSLRLSCHASGFIFGYKAMGWYRQAPGKERELVAAISSGGSTYYADSVKGRFTISRDNAKYTVYLQMKSLKPEDTAVFYCATVFVVLPPTRFDSWGQGTQVTVSS	low polyreactivity
QVQLVESGGGLVQAGGSLRLSCPASGFIYPVYAMGWSRQAPGKERELVAAISRRGGSTYYADSVKGRFTISRDNAKNTVYLQMNSLKPDDTAVYYCAKDGRGDPVKDDYWGLGTQVTVSS	high polyreactivity
QVQLVESGGGLVQAGGSLRLSCPASGFTFVRYAMGWYRQAPGKERELVAAISSSGSSTYYADSVKGRFTISRDNAKYTVYLQMNSLKPEDSAVYYCNARAGRGEDYWGQGTQVTVSS	low polyreactivity
QVQLVESGGGLVQAGGSLRLSCPASGGTFYVYAMGGYRQEPGKERELVAAISTSDGITYYADSVKGRFTISRDNAKNNVYLQMNSLKPEDTAVYYCAAVYAGVGSPVKRDYWGLGTQVTVSS	high polyreactivity
QVQLVESGGGLVQAGGSLRLSCPASGRIYDYNGMRWYRQAPRKERELVAAITSSGSRTYYADSVKGRFTISRDNAKNTVYFQMNSLKPEDTAVYYCARGGGRRKGLVDYWGQGTQVSVSS	low polyreactivity
QVQLVESGGGLVQAGGSLRLSCPASGRTFHYYTLGWYRQSPGKERELVARISLGVGSTYYADSVKGRFTISRDIAKNTVDLQMNSLKPEDTAVYYCNAVWYKSVVKGVYGRVDWGQGTQVTVSS	low polyreactivity
QVQLVESGGGLVQAGGSLRLSCPASGRTFKYYAMGCYRQSPGKESELVAAITSTGGSTYYADSVKGRFTISRDNAMNTVYLQMNSLKPEDTAVYYCNRYTQYRDRSDNHWGQGTQVTVSS	high polyreactivity
QVQLVESGGGLVQAGGSLRLSCPASGRTFYKYAMGWYRQAPGKEREFVADISSRGGSTYYADSVKGRFTISRDNAKNTVYLQMNSLKPEDTAVYYCAKRDRAAARAYYYWGQGTQVTVSS	high polyreactivity
